Experimental data as given in US20050244828A1.

Target: CD22-Fc fusion protein (extra-cellular domain of human CD22 fused to human IgG Fc) (human) (UniProt P20273)

Work on “BL22, a recombinant immunotoxin containing the FV domains of RFB4 fused to PE38, a truncated form of (from UniProt P11439 278-638)” yielded a percent inhibition of measured sCD22 level of 50%.
